Measured values taken from patent EP1506972A1 (Genentech Inc., dated 2005).

Legend:
[1] = biological target: T1, IGF-I S1A (G1S-A70V background) displayed on phage (human; bacteriophage M13); assay: competitive phage ELISA, soluble IGFBP-1 vs coated IGFBP-1
T1 construct: range 249-406; the result is Ala 1

[2] = biological target: T2, IGF-I K68A (G1S-A70V background) displayed on phage (human; bacteriophage M13); assay: as above
T2 construct: not shown: Display carrier: M13 gene III protein fragment (residues 249-406) and its junction to Val70

B1: human IGFBP-1 (other, UniProt P08833 26-259, looked up)
chain: APWQCAPCSAEKLALCPPVSASCSEVTRSAGCGCCPMCALPLGAACGVATARCARGLSCRALPGEQQPLHALTRGQGACVQESDASAPHAAEAGSPESPESTEITEEELLDNFHLMAPSEEDHSILWDAISTYDGSKALHVTNIKKWKEPCRIELYRVVESLAKAQETSGEEISKFYLPNCNKNGFYHSRQCETSMDGEAGLCWCVYPWNGKRIPGSPEIRGDPNCQIYFNVQN
notes: Secreted recombinant protein
[1]
  relative IC50 (IC50mut/IC50 G1S-A70V): 0.6 fold
[2]
  relative IC50 (IC50mut/IC50 G1S-A70V): 1.3 fold
